Reference: US20230157952A1, “METHOD FOR IMPROVING THE STABILITY OF A PHARMACEUTICAL COMPOSITION COMPRISING A HIGH PENETRATION DRUG, AND THE PHARMACEUTICAL COMPOSITION OBTAINED THEREFROM” (Techfields Inc., priority 2020, published 2023)
Non-standard residues stand in square brackets, D forms with d. Arg(NO2) = N=C(NCCC[C@H](N)C(=O)O)N[N+](=O)[O-]

Columns and labels:
[1] = Effect of pH value on the stability of the solution (purity); format: physicochemical; conditions: 5% solution
[2] = Stability of the pure HPDs (dry solid) at 25° C./RH 60%; format: physicochemical; conditions: pure HPD, 25° C./RH 60%
[3] = 25% ethanol (after multiple recrystalization), pH 3.7, 25° C.
[4] = 25% ethanol with 0.5 equivalent sodium acetate, pH 3.7, 25° C.
[5] = 25% ethanol with 1 equivalent sodium acetate, pH 4.6, 25° C.
[6] = 25% ethanol with 1.5 equivalent sodium acetate, pH 5.6, 25° C.
[7] = 25% ethanol with HCl, pH 2.0, 25° C.
[8] = 25% ethanol with NaOH, pH 7, 25° C.
[9] = 25% ethanol with NaOH, pH 8, 25° C.

In the case of “H-Ala-Pro-Gly-Pro-Arg(NO2)—OCH2CH3•HCl salt (H-APGP[Arg(NO2)]-OEt; also: HCl salt)”, the “Purity(%) at day 1” value [1, 3] is reported as 98.1 ± 0.2%, the “Purity(%) at day 30” value [1, 3] is reported as 97.3 ± 0.2% and the “Purity(%) at day 90” value [1, 3] is reported as 95.0 ± 0.1%. The “Purity(%) at day 180” value [1, 3] was 91.2 ± 0.3%, the “Purity(%) at day 1” value [1, 4] was 98.2 ± 0.1% and the “Purity(%) at day 30” value [1, 4] was 97.4 ± 0.2%. For the same molecule, the “Purity(%) at day 90” value [1, 4] was 95.1 ± 0.3%, the “Purity(%) at day 180” value [1, 4] was 91.2 ± 0.3% and the “Purity(%) at day 1” value [1, 5] was 98.2 ± 0.2%. For the same molecule, the “Purity(%) at day 30” value [1, 5] was 97.3 ± 0.2%, the “Purity(%) at day 90” value [1, 5] was 95.0 ± 0.3% and the “Purity(%) at day 180” value [1, 5] was 91.1 ± 0.3%. For the same molecule, the “Purity(%) at day 1” value [1, 6] was 98.1 ± 0.2%, the “Purity(%) at day 30” value [1, 6] was 94.7 ± 0.2% and the “Purity(%) at day 90” value [1, 6] was 91.5 ± 0.3%. The “Purity(%) at day 180” value [1, 6] was 83.7 ± 0.3%, the “Purity(%) at day 1” value [1, 7] was 97.8 ± 0.1% and the “Purity(%) at day 30” value [1, 7] was 84.2 ± 0.2%. For the same molecule, the “Purity(%) at day 90” value [1, 7] was 69.6 ± 0.2%, the “Purity(%) at day 180” value [1, 7] was 39.9 ± 0.3% and the “Purity(%) at day 1” value [1, 8] was 97.9 ± 0.2%. For the same molecule, the “Purity(%) at day 30” value [1, 8] was 55.2 ± 0.3%, the “Purity(%) at day 90” value [1, 8] was 31.3 ± 0.3% and the “Purity(%) at day 180” value [1, 8] was 0%. For the same molecule, the “Purity(%) at day 1” value [1, 9] was 97.5 ± 0.1%, the “Purity(%) at day 30” value [1, 9] was 22.6 ± 0.2% and the “Purity(%) at day 90” value [1, 9] was 0%. For the same molecule, the “Purity(%) at day 180” value [1, 9] was 0%, the “Purity(%) at day 1” value ([1]; 25% ethanol, pH 3.0, 25° C.) was 98.1 ± 0.2% and the “Purity(%) at day 30” value ([1]; 25% ethanol, pH 3.0, 25° C.) was 95.7 ± 0.3%. The “Purity(%) at day 90” value ([1]; 25% ethanol, pH 3.0, 25° C.) was 92.8 ± 0.3% and the “Purity(%) at day 180” value ([1]; 25% ethanol, pH 3.0, 25° C.) was 86.0 ± 0.3%.

`CCN(CC)CCOC(=O)[C@H](C)c1ccc2cc(OC)ccc2c1.Cl` [A-1-3, 2-(diethylamino)ethyl (R)-2-(6-methoxy-2-naphthyl) propionate•HCl salt] gave a Purity ([2]; 18 month) of 98.1 ± 0.2 and a Purity ([2]; 24 month) of 97.9 ± 0.2.

In the case of `Br.CCN(CC)CCOC(=O)C(C)c1ccc(-c2ccccc2)c(F)c1` (stereo not shown) [B-1-4, 2-(diethylamino)ethyl 2-(2-fluoro-4-biphenyl)propionate•HBr salt], the Purity ([2]; 18 month) is reported as 98.1 ± 0.1, the Purity ([2]; 24 month) is reported as 97.9 ± 0.1 and the Purity ([2]; Day 0) is reported as 98.6 ± 0.2.
